Laboratory results published in the RNAGym collection of RNA variant scans (doi:10.7554/elife.90254).

B1: LINE1-full (parent)
chain: UACGUAGGUGGUUUUCCCCUGAUAGUGCUAAGGGGGCCUGGAAGUUUGGACUGGGCAGAGCUCAACACAGCGUGGCAAAGUGGCUGUGGCUAGACUGCCUCUCUGGAUUCCUCGUCACUCAGCAGGGCAUCUCUGAGAGAAAUGCC

Variants of: B1
Experiment: self-cleavage, relative activity (ratio to wild type); higher = more cleavage; in vitro, sequencing; the parent is a self-cleaving ribozyme

Variant	self-cleavage
UACGUAGGUGGUUUUCCCCUGAUGGUGCUAAGGGGGCCUGGAAGUUUGGACUGGGCAGAGCUCAACACAGCGUGGCAAAGUGGCUGUGGCUAGACUGCCUCUCUGGAUUCCUCGUCACUCAGCAGGGCAUUUCUGAGAGAAAUGCC [A24G C131U]	1.59
UACGUAGGUGGUUUUCCCCUGAUGGUGCUAAGGGGGCCUGGAAGUUUGGACUGGGCAGAGCUCAACACAGCGUGGCAAAGUGGCUGUGGCUAGACUGCCUCUCUGGAUUCCUCGUCACUCAGCAGGGCAUCUCUGAGAGAAAUGCU [A24G C146U]	1.61
UACGUAGGUGGUUUUCCCCUGAUGGUGCUAAAGGGGCCUGGAAGUUUGGACUGGGCAGAGCUCAACACAGCGUGGCAAAGUGGCUGUGGCUAGACUGCCUCUCUGGAUUCCUCGUCACUCAGCAGGGCAUCUCUGAGAGAAAUGCC [A24G G32A]	1.13
UACGUAGGUGGUUUUCCCCUGAUGGUGCUAAGAGGGCCUGGAAGUUUGGACUGGGCAGAGCUCAACACAGCGUGGCAAAGUGGCUGUGGCUAGACUGCCUCUCUGGAUUCCUCGUCACUCAGCAGGGCAUCUCUGAGAGAAAUGCC [A24G G33A]	0.35
UACGUAGGUGGUUUUCCCCUGAUGGUGCUAAGGGUGCCUGGAAGUUUGGACUGGGCAGAGCUCAACACAGCGUGGCAAAGUGGCUGUGGCUAGACUGCCUCUCUGGAUUCCUCGUCACUCAGCAGGGCAUCUCUGAGAGAAAUGCC [A24G G35U]	1.15
UACGUAGGUGGUUUUCCCCUGAUGGUGCUAAGGGGGCCUGGAAGUUUGGACUAGGCAGAGCUCAACACAGCGUGGCAAAGUGGCUGUGGCUAGACUGCCUCUCUGGAUUCCUCGUCACUCAGCAGGGCAUCUCUGAGAGAAAUGCC [A24G G53A]	1.8
UACGUAGGUGGUUUUCCCCUGAUGGUGCUAAGGGGGCCUGGAAGUUUGGACUGAGCAGAGCUCAACACAGCGUGGCAAAGUGGCUGUGGCUAGACUGCCUCUCUGGAUUCCUCGUCACUCAGCAGGGCAUCUCUGAGAGAAAUGCC [A24G G54A]	0.67
UACGUAGGUGGUUUUCCCCUGAUGGUGCUAAGGGGGCCUGGAAGUUUGGACUGCGCAGAGCUCAACACAGCGUGGCAAAGUGGCUGUGGCUAGACUGCCUCUCUGGAUUCCUCGUCACUCAGCAGGGCAUCUCUGAGAGAAAUGCC [A24G G54C]	0.72
UACGUAGGUGGUUUUCCCCUGAUGGUGCUAAGGGGGCCUGGAAGUUUGGACUGUGCAGAGCUCAACACAGCGUGGCAAAGUGGCUGUGGCUAGACUGCCUCUCUGGAUUCCUCGUCACUCAGCAGGGCAUCUCUGAGAGAAAUGCC [A24G G54U]	0.68
UACGUAGGUGGUUUUCCCCUGAUGGUGCUAAGGGGGCCUGGAAGUUUGGACUGGACAGAGCUCAACACAGCGUGGCAAAGUGGCUGUGGCUAGACUGCCUCUCUGGAUUCCUCGUCACUCAGCAGGGCAUCUCUGAGAGAAAUGCC [A24G G55A]	0.3
UACGUAGGUGGUUUUCCCCUGAUGGUGCUAAGGGGGCCUGGAAGUUUGGACUGGUCAGAGCUCAACACAGCGUGGCAAAGUGGCUGUGGCUAGACUGCCUCUCUGGAUUCCUCGUCACUCAGCAGGGCAUCUCUGAGAGAAAUGCC [A24G G55U]	0.26
UACGUAGGUGGUUUUCCCCUGAUGGUGCUAAGGGGGCCUGGAAGUUUGGACUGGGCAGAGCUCAACACAGCGUAGCAAAGUGGCUGUGGCUAGACUGCCUCUCUGGAUUCCUCGUCACUCAGCAGGGCAUCUCUGAGAGAAAUGCC [A24G G74A]	0.93
UACGUAGGUGGUUUUCCCCUGAUGGUGCUAAGGGGGCCUGGAAGUUUGGACUGGGCAGAGCUCAACACAGCGUGGCAAAGUGGCUGUGGCUAGACUGCCUCUCUGAAUUCCUCGUCACUCAGCAGGGCAUCUCUGAGAGAAAUGCC [A24G G106A]	0.78
UACGUAGGUGGUUUUCCCCUGAUGGUGCUAAGGGGGCCUGGAAGUUUGGACUGGGCAGAGCUCAACACAGCGUGGCAAAGUGGCUGUGGCUAGACUGCCUCUCUGGAUUCCUCCUCACUCAGCAGGGCAUCUCUGAGAGAAAUGCC [A24G G114C]	1.7
UACGUAGGUGGUUUUCCCCUGAUGGUGCUAAGGGGGCCUGGAAGUUUGGACUGGGCAGAGCUCAACACAGCGUGGCAAAGUGGCUGUGGCUAGACUGCCUCUCUGGAUUCCUCGUCACUCAGCAGGGCAUCUCUGAGAGAAAUACC [A24G G144A]	1.35
UACGUAGGUGGUUUUCCCCUGAUGGAGCUAAGGGGGCCUGGAAGUUUGGACUGGGCAGAGCUCAACACAGCGUGGCAAAGUGGCUGUGGCUAGACUGCCUCUCUGGAUUCCUCGUCACUCAGCAGGGCAUCUCUGAGAGAAAUGCC [A24G U26A]	0.84
UACGUAGGUGGUUUUCCCCUGAUGGUGCCAAGGGGGCCUGGAAGUUUGGACUGGGCAGAGCUCAACACAGCGUGGCAAAGUGGCUGUGGCUAGACUGCCUCUCUGGAUUCCUCGUCACUCAGCAGGGCAUCUCUGAGAGAAAUGCC [A24G U29C]	1.41
UACGUAGGUGGUUUUCCCCUGAUGGUGCUAAGGGGGCCCGGAAGUUUGGACUGGGCAGAGCUCAACACAGCGUGGCAAAGUGGCUGUGGCUAGACUGCCUCUCUGGAUUCCUCGUCACUCAGCAGGGCAUCUCUGAGAGAAAUGCC [A24G U39C]	1.11
UACGUAGGUGGUUUUCCCCUGAUGGUGCUAAGGGGGCCGGGAAGUUUGGACUGGGCAGAGCUCAACACAGCGUGGCAAAGUGGCUGUGGCUAGACUGCCUCUCUGGAUUCCUCGUCACUCAGCAGGGCAUCUCUGAGAGAAAUGCC [A24G U39G]	0.76
UACGUAGGUGGUUUUCCCCUGAUGGUGCUAAGGGGGCCUGGAAGUAUGGACUGGGCAGAGCUCAACACAGCGUGGCAAAGUGGCUGUGGCUAGACUGCCUCUCUGGAUUCCUCGUCACUCAGCAGGGCAUCUCUGAGAGAAAUGCC [A24G U46A]	0.9
